Consider two substances from publication PMC5605508.

The target of data set [1] is SSBΔC8 (Escherichia coli) (UniProt P0AGE0). Put plainly: EMSA. As to conditions: Buffer 1: 25 mM Tris-HCl, 10 mM Mg acetate, 3 mM K glutamate, pH 7.5, room temperature (TPM: 2 uM RecA, 2 mM ATP, 1 mM DTT, 1 mg/mL BSA); buffer 2: 10 mM Tris …. In general terms: In EMSA bound probe runs differently from free probe, usually more slowly.
In data set [2] the target is wtSSB (Escherichia coli) (UniProt P0AGE0). Put plainly: EMSA. As to conditions: Buffer 1: 25 mM Tris-HCl, 10 mM Mg acetate, 3 mM K glutamate, pH 7.5, room temperature (TPM: 2 uM RecA, 2 mM ATP, 1 mM DTT, 1 mg/mL BSA); buffer 2: 10 mM Tris ….
In data set [3] the target is SSBΔC8 (Escherichia coli) (UniProt P0AGE0). Put plainly: SPR. As to conditions: 10 mM Mg acetate, 3 mM K glutamate, pH 7.5, room temperature (TPM: 2 uM RecA, 2 mM ATP, 1 mM DTT, 1 mg/mL BSA).
For data set [4], the target named is wtSSB (Escherichia coli) (UniProt P0AGE0). Put plainly: SPR. The following applies: 10 mM Mg acetate, 3 mM K glutamate, pH 7.5, room temperature (TPM: 2 uM RecA, 2 mM ATP, 1 mM DTT, 1 mg/mL BSA).
[5] abbreviates: buffer 1, 0.005% Tween-20, Buffer 1: 25 mM Tris-HCl, buffer 2: 10 mM Tris ….
[6] abbreviates: buffer 2 (10 mM Tris, 0.1 mM Na3EDTA, pH 8.1), 0.005% Tween-20, Buffer 1: 25 mM Tris-HCl.

On to 55 nt ssDNA overhang (EMSA), for which the Kd (as a rule, the concentration at which binding is half-saturated) was 13.9 nM in data set [1] and 4.04 nM with wtSSB (Escherichia coli) [2].

Consider 55 nt ssDNA overhang (SPR), for which the Kd in data set [3] (setting [5]) amounted to 4.7 nM; in data set [3] (setting [6]) it was 89.1 nM; with wtSSB (Escherichia coli) [4] (setting [5]), 24 nM; with wtSSB (Escherichia coli) [4] (setting [6]), 145 nM.
